Assay results reported in patent US20220169679A1 (THAI UNION GROUP PUBLIC, published 2022).
Several values for one entry are separate records, joined by “and”; a condition that tells them apart may be missing. Identical values can stand only once.

Tests used:
Experiment in all cases: cell-based or functional assay
[1] = molecular target: angiotensin I-converting enzyme (ACE)
[2] = molecular target: angiotensin I-converting enzyme (ACE); remark: listed apart in the source
[3] = molecular target: angiotensin I-converting enzyme (ACE); remark: listed apart in the source

ACE inhibition (%) at 1 mg/ml [1] [%] | Binder | other results
70.6 | GVPGIHGS [… (SEQ ID NO: 31)] | –
45.3 | IFERL [IFERL (SEQ ID NO: 19)] | –
– | INCR [INCR (SEQ ID NO: 7)] | ACE inhibitory activity (%) at 1 µg/ml [2]: 29.1%; ACE inhibitory activity (%) at 1 mg/ml [2]: 101%
1.9 | LEQVSAGTT [LEQVSAGTT (SEQ ID NO: 25)] | –
85.8 | GPLYHS [GPLYHS (SEQ ID NO: 13)] | –
25.9 | NGPSGQTG [NGPSGQTG (SEQ ID NO: 21)] | –
33.4 | LIHAIL [LIHAIL (SEQ ID NO: 14)] | –
55.1 | VLMSQVFKQT [VLMSQVFKQT (SEQ ID NO: 16)] | –
97 | VIYSRINCR [VIYSRINCR (SEQ ID NO: 5)] | IC50 of ACE inhibitory activity [3]: 0.27 µg/ml and 0.24 µM
24.3 | IKVGGERF [IKVGGERF (SEQ ID NO: 29)] | –
79 | LLHAKPLN [LLHAKPLN (SEQ ID NO: 28)] | –
71.7 | LPPGKIV [LPPGKIV (SEQ ID NO: 18)] | –
94.9 | NLLPHR [NLLPHR (SEQ ID NO: 3)] | IC50 of ACE inhibitory activity [3]: 0.93 µg/ml and 1.24 µM
94.2 | VSVVQYSR [VSVVQYSR (SEQ ID NO: 4)] | IC50 of ACE inhibitory activity [3]: 0.89 µg/ml and 0.95 µM
82 | APPHIF [APPHIF (SEQ ID NO: 23)] | –
68 | WTIHTP [WTIHTP (SEQ ID NO: 17)] | –
36.9 | VQSVPAT [VQSVPAT (SEQ ID NO: 26)] | –
15.5 | VEWKERATE [VEWKERATE (SEQ ID NO: 27)] | –
– | SRINCR [SRINCR (SEQ ID NO: 8)] | ACE inhibitory activity (%) at 1 µg/ml [2]: 27.5%; ACE inhibitory activity (%) at 1 mg/ml [2]: 98.8%
29.2 | LLDHRANL [LLDHRANL (SEQ ID NO: 22)] | –
88.4 | FDQFLPIH [FDQFLPIH (SEQ ID NO: 20)] | –
2.91 | QGPPGNPG [QGPPGNPG (SEQ ID NO: 32)] | –
– | VIY | ACE inhibitory activity (%) at 1 mg/ml [2]: 18.5%
21.5 | KKLEKKTT [KKLEKKTT (SEQ ID NO: 30)] | –
– | VIYSR [VIYSR (SEQ ID NO: 6)] | ACE inhibitory activity (%) at 1 µg/ml [2]: 12.1%; ACE inhibitory activity (%) at 1 mg/ml [2]: 97.8%
77.7 | SFLMRK [SFLMRK (SEQ ID NO: 15)] | –
49 | MTGLPGPTGP [MTGLPGPTGP (SEQ ID NO: 33)] | –
27 | HFAASGK [HFAASGK (SEQ ID NO: 24)] | –
